Target: human c-Met (HGFR), full length, on the cell surface (human, UniProt P08581 25-1390)
Experiment: cell-based or functional assay

Sequence of human c-Met (HGFR), full length, on the cell surface (P08581 25-1390 limits assumed): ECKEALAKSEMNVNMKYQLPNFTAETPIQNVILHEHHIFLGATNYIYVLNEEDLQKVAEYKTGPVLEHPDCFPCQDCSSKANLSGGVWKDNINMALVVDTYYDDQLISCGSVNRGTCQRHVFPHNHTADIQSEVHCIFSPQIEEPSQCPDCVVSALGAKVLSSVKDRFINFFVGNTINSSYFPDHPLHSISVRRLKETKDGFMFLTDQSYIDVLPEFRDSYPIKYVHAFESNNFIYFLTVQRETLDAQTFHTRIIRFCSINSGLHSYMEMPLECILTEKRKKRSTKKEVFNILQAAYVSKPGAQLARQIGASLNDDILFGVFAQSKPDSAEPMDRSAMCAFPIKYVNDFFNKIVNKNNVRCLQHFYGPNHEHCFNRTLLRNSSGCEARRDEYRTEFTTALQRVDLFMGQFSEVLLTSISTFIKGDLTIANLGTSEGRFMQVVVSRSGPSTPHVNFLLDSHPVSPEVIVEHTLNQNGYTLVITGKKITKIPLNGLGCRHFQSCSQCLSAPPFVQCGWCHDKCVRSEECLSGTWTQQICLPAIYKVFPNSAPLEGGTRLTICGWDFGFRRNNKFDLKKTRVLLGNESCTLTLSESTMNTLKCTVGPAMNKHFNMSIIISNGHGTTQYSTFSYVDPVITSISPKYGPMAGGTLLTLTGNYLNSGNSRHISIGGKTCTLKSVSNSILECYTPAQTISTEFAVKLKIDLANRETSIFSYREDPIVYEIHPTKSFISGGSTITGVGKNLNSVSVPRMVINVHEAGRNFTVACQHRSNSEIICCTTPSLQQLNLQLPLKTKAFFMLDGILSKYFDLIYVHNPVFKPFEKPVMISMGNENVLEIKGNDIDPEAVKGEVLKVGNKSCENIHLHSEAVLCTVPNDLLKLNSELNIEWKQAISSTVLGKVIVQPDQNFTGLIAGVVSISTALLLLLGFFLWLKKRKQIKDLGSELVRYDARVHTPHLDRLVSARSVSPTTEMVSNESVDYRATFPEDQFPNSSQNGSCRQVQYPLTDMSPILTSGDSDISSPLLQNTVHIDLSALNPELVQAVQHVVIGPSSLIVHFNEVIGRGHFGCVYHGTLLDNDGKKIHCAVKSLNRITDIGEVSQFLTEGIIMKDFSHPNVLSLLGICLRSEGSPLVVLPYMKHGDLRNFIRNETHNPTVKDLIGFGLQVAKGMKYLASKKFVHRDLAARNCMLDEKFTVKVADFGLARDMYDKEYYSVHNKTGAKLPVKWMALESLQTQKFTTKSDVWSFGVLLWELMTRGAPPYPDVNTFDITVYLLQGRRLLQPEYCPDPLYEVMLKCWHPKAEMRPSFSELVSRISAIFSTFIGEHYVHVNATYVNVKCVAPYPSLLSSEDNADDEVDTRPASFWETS

Binder | Efficacy (%), in vitro cytotoxicity, MKN-45, -HGF | Efficacy (%), in vitro cytotoxicity, NCI-H596, +HGF | Efficacy (%), in vitro cytotoxicity, NCI-H596, -HGF | Efficacy (%), in vitro cytotoxicity, PC-3, +HGF | Efficacy (%), in vitro cytotoxicity, PC-3, -HGF | IC50, in vitro cytotoxicity, MKN-45, -HGF | IC50, in vitro cytotoxicity, NCI-H596, +HGF | IC50, in vitro cytotoxicity, NCI-H596, -HGF | IC50, in vitro cytotoxicity, PC-3, +HGF | IC50, in vitro cytotoxicity, PC-3, -HGF | IC50 1, in vitro cytotoxicity, PC-3, -HGF | IC50 2, in vitro cytotoxicity, PC-3, -HGF
ADC1 (antibody, human IgG1, kappa, V domains shown, vc-seco-DUBA linker-drug on the engineered cysteine at HC position 41 (Kabat); DAR 1.5) VH: EVQLQQSGPELLKPGASVKMSCKASGYIFTDYFMNWVKQSCGKSLEWIGRVNPKNGDITYNQKFRGKATLTVDKSLTTAYMQLNSLTSEDSAVYFCAYDGYYDGMDFWGQGTSVTVSS VL: ENVLTQSPAIMSASPGEKVTMTCRANSSVSSNFLHWYQQKSGASPKLWISSTSNLAFGVPPRFSGSGSGTSYSLTISSVEAEDAATYYCHQYSGHPFTFGSGTKLEIKR | 72% | 29% | 16% | 42% | 41% | 0.73 nM | 0.38 nM | > 10 nM | 0.185 nM | 0.069 nM |  | 
ADC2a (antibody, human IgG1, kappa, V domains shown, vc-seco-DUBA linker-drug on the engineered cysteine at HC position 41 (Kabat); DAR 1.7) VH: QVQLVQSGAELRKPGSSVKVSCRASGYVFPDYEMHWVRQACGQGLEWMGAFDPETGDTTYNQNFKGRVTIAADKSTSTAYMELRSLRSEDTAIYYCARDYKYLYYYAMDNWGQGTMVTVSS VL: EIVLTQSPSLLSASIGDRVTIPCTASSSITSSYLHWYQQKPGKAPKLLIYSTTNLASGVPSRFSGSGSGTEFTLTISSLQPEDFATYYCHQYRRSPLTFGGGTKLEIKR | 86% | 26% | 8% | 76% | 77% | 0.44 nM | > 10 nM | > 10 nM | ~0.74 nM |  | 0.06 nM | 40 nM
ADC2b (antibody, human IgG1, kappa, V domains shown, vc-seco-DUBA linker-drug on the engineered cysteine at HC position 41 (Kabat); DAR 1.7) VH: QVQLVQSGAEVKKPGSSVKVSCKASGYVFPDYEMHWVRQACGQGLEWMGAFDPETGDTTYNQNFKGRVTITADKSTSTAYMELSSLRSEDTAVYYCARDYKYLYYYAMDNWGQGTTVTVSS VL: DIQMTQSPSSLSASVGDRVTITCTASSSITSSYLHWYQQKPGKAPKLLIYSTTNLASGVPSRFSGSGSGTDFTLTISSLQPEDFATYYCHQYRRSPLTFGGGTKLEIKR | 84% | 34% | 10% | 75% | 77% | 0.4 nM | > 10 nM | > 10 nM | ~2.46 nM |  | 0.05 nM | 100 nM
ADC2c (antibody, human IgG1, kappa, V domains shown, vc-seco-DUBA linker-drug on the engineered cysteine at HC position 41 (Kabat); DAR 1.7) VH: QVQLVQSGAEVKKPGSSVKVSCKASGYVFPDYEMHWVRQACGQGLEWMGAFDPETGDTTYNQNFKGRVTITADKSTSTAYMELSSLRSEDTAVYYCARDYKYLYYYAMDNWGQGTTVTVSS VL: EIVLTQSPSLLSASIGDRVTIPCTASSSITSSYLHWYQQKPGKAPKLLIYSTTNLASGVPSRFSGSGSGTEFTLTISSLQPEDFATYYCHQYRRSPLTFGGGTKLEIKR | 84% | 32% | 3% | 75% | 76% | 0.41 nM | > 10 nM | > 10 nM | ~1.97 nM |  | 0.08 nM | 58 nM
ADC3 (antibody, human IgG1, kappa, V domains shown, vc-seco-DUBA linker-drug on the engineered cysteine at HC position 41 (Kabat); DAR 1.1) VH: QIQLQQSGPELVKPGASVKISCKASGYTFTDYYLNWVKQRCGQGLEWIGLIFPGNDKTEYSEKFKGKATLTVDTSSSTAYIQLSRLSSEDSAIYFCSGGDYGGFVYWGQGTLVTVSS VL: DIQMTQSPTSLSASVGETVTITCGASENIYGALNWYQRKQGKSPQLLIYGATNLADGMSSRFSGSGSGRQFSLKINSLHPDDVATYFCQNVLSSPLTFGSGTKLEIKR | 50% | 53% | 16% | 30% | 24% | 0.77 nM | 1.86 nM | > 10 nM | 0.224 nM | 0.076 nM |  | 
ADC3a (antibody, human IgG1, kappa, V domains shown, vc-seco-DUBA linker-drug on the engineered cysteine at HC position 41 (Kabat); DAR 1.9) VH: QVQLVQSGAEVKKPGASVKVSCKASGYTFTDYYLNWVRQACGQGLEWMGLIFPGNDKTEYSEKFKGRVTLTTDTSISTAYMELSSLTSDDTALYYCSGGDYGGFVYWGQGTLVTVSS VL: DIQLTQSPSSLSASVGDRVTITCGASENIYGALNWYQQKPGKAPKLLIYGATNLADGVPSRFSGSGSGTDFTLTISSLQPEDFATYYCQNVLSSPLTFGPGTKVDIKR | 85% | 43% | 3% | 72% | 73% | 0.55 nM | 2.14 nM | > 10 nM | ~0.71 nM |  | 0.05 nM | 5.77 nM
ADC3c (antibody, human IgG1, kappa, V domains shown, vc-seco-DUBA linker-drug on the engineered cysteine at HC position 41 (Kabat); DAR 1.8) VH: QVQLVQSGAEVKKPGASVKVSCKASGYTFTDYYLNWVRQACGQGLEWMGLIFPGNDKTEYSEKFKGRVTLTTDTSISTAYMELSSLTSDDTALYYCSGGDYGGFVYWGQGTLVTVSS VL: DIQMTQSPSSLSASVGDRVTITCGASENIYGALNWYQQKPGKAPKLLIYGATNLADGVPSRFSGSGSGTDFTLTISSLQPEDVATYYCQNVLSSPLTFGSGTKLEIKR | 84% | 44% | 10% | 72% | 73% | 0.41 nM | 1.89 nM | > 10 nM | ~1.85 nM |  | 0.04 nM | 112 nM
ADC3d (antibody, human IgG1, kappa, V domains shown, vc-seco-DUBA linker-drug on the engineered cysteine at HC position 41 (Kabat); DAR 1.8) VH: QVQLQESGAEVKKPGASVKVSCKASGYTFTDYYLNWVRQACGQGLEWMGLIFPGNDKTEYSEKFKGRVTMTRDTSTSTVYMELSSLRSEDTAVYYCSGGDYGGFVYWGQGTLVTVSS VL: DIQLTQSPSSLSASVGDRVTITCGASENIYGALNWYQQKPGKAPKLLIYGATNLADGVPSRFSGSGSGTDFTLTISSLQPEDFATYYCQNVLSSPLTFGPGTKVDIKR | 82% | 41% | 5% | 73% | 74% | 0.5 nM | 2.17 nM | > 10 nM | ~2.49 nM |  | 0.04 nM | 54 nM
ADC3e (antibody, human IgG1, kappa, V domains shown, vc-seco-DUBA linker-drug on the engineered cysteine at HC position 41 (Kabat); DAR 1.9) VH: QVQLQESGAEVKKPGASVKVSCKASGYTFTDYYLNWVRQACGQGLEWMGLIFPGNDKTEYSEKFKGRVTMTRDTSTSTVYMELSSLRSEDTAVYYCSGGDYGGFVYWGQGTLVTVSS VL: DIQMTQSPSSLSASVGDRVTITCGASENIYGALNWYQQKPGKAPKLLIYGATNLADGVPSRFSGSGSGTDFTLTISSLQPEDVATYYCQNVLSSPLTFGSGTKLEIKR | 81% | 44% | 11% | 74% | 74% | 0.46 nM | 2.52 nM | > 10 nM | ~2.86 nM |  | 0.04 nM | 541 nM
ADC1a (antibody, human IgG1, kappa, V domains shown, vc-seco-DUBA linker-drug on the engineered cysteine at HC position 41 (Kabat); DAR 1.7) VH: QVQLVQSGAEVKKPGASVKVSCKASGYIFTDYFMNWVRQACGQGLEWMGRVNPKNGDITYNQKFRGRVSLTKDTSINTAYMELSGLTSDDTAIYYCAYDGYYDGMDFWGQGTSVTVSS VL: ELVMTQSPSSLSASVGDRVTITCRANSSVSSNFLHWYQQKPGKAPKLLISSTSNLAFGVPSRFSGTGSGTDFSLTISSLQPEDFAIYYCHQYSGHPFTFGQGTKLEIKR | 84% | 40% | 14% | 77% | 78% | 0.42 nM | > 10 nM | > 10 nM | ~1.22 nM |  | 0.6 nM | 224 nM
ADC2 (antibody, human IgG1, kappa, V domains shown, vc-seco-DUBA linker-drug on the engineered cysteine at HC position 41 (Kabat); DAR 1.7) VH: QVQLQQSGAELVRPGASVKLSCKASGYVFPDYEMHWVKQTCVHGLEWIGAFDPETGDTTYNQNFKGKATLTADKASSTAYMDLRSLTSGDSAVYYCARDYKYLYYYAMDNWGQGTSVTVSS VL: QIVLTQSPAIMSASLGERVTMTCTASSSITSSYLHWYQQKPGSSPKLWIYSTTNLASGVPGRFSGSGSGTSFSLTISSMEAEDAATYYCHQYRRSPLTFGAGTKLELKR | 76% | 32% | 6% | 69% | 69% | 0.44 nM | > 10 nM | > 10 nM | ~10 nM |  | 0.05 nM | 84 nM
